Experimental data reported in patent US20260115250A1 (published 2026).
Where a chain is given by its changes, count along the chain named.

B1: T-117 (peptide)
peptide: RSGADALESALKELKRFIREWTLGQSTEELRVRLASHLRKLRKRLLRDADDLQKRLAVYQA
B2: T-112 (peptide)
peptide: YKDFGERVERALGRQLEMLGQSTEELRVRLASHLRKLRKRLLRDADDLQKRLAVYQA
B3: T-068 (peptide)
peptide: MEDVRGRLVQYRGEVQAMLGQSTEELRVRLASHLRKLRKRLLRDADDLQKRLAVYQA
B4: T-069 (peptide)
peptide: VRGRLVQYRGEVQAMLGQSTEELRVRLASHLRKLRKRLLRDADDLQKRLAVYQA
B5: T-115 (peptide)
peptide: DHINKVQRKVTHEIERLFLGQSTEELRVRLASHLRKLRKRLLRDADDLQKRLAVYQA
B6: T-116 (peptide)
peptide: DAWERFRALFKELADYFRLGQSTEELRVRLASHLRKLRKRLLRDADDLQKRLAVYQA
B7: LDLR (receptor)
chain: not shown
B8: T-114 (peptide)
peptide: B2 peptide with Y1L, E9A, G13R, R14E, L16F, M18D
B9: T-113 (peptide)
peptide: B2 peptide with Y1W, G13R, R14E, L16F, M18D
B10: T-120 (peptide)
peptide: DVKRLLKELTEAMAELARKAEDIRGNLDQYFRKVFAMLGQSTEELRVRLASHLRKLRKRLLRDADDLQKRLAVYQA
B11: T-118 (peptide)
peptide: LVARLLKELTAAMARLGRDAEDIRGNLFQYFDEVWAMLGQSTEELRVRLASHLRKLRKRLLRDADDLQKRLAVYQA

Legend:
[1] = molecular target: T1, Low Density Lipoprotein Receptor (LDLR), recombinant (UniProt P01130 22-788); experiment: SPR; HBS + 0.05% P20
[2] = molecular target: T1, Low Density Lipoprotein Receptor …; experiment: SPR; HBS + 0.005% P20, DMPC complex
[3] = molecular target: T1, Low Density Lipoprotein Receptor …; experiment: SPR; HBS + 0.005% P20, peptide
[4] = molecular target: T1, Low Density Lipoprotein Receptor …; experiment: SPR; HBS + 0.005% P20, DMPC complex; remark: listed apart in the source
[5] = molecular target: T1, Low Density Lipoprotein Receptor …; experiment: SPR; HBS + 0.005% P20, peptide; remark: listed apart in the source
T-050 = experiment: SPR; HBS + 0.05% P20
T-053 = experiment: SPR; HBS + 0.05% P20
T-060 = experiment: SPR; HBS + 0.05% P20
T-119 = experiment: SPR; HBS + 0.005% P20, peptide
T-077 = experiment: SPR; HBS + 0.005% P20, DMPC complex
T-071 = experiment: SPR; HBS + 0.005% P20, DMPC complex

Binder	Kd [1] [µM]	Kd [2] [µM]	Kd [3] [µM]	Kd [4] [µM]	Kd [5] [µM]	also measured
LASHLRKLRKRLLRDADDLQKRLAVYQA [T-044]	7.97	1160	–	–	–	–
HLRKLRKRLLRSLVSQYFQTVTDYGKDL [T-109]	1.2	–	3.15	1.05	–	–
LASHLRKLRKRLLRDADDLQKRLAVYQAGAREGAER [T-046]	3.56	56.3	–	–	6.72	–
LARHLRKLRKRLARSLVSQYFQTVTDYGKDLM [T-066]	2.42	0.11	–	–	2.06	–
HLRKLVKRLLRSLVSQYRQTVTDYGEDL [T-111]	1.06	–	2.98	0.46	–	–
B1	4.49	–	0.4	0.01	–	–
HLRKLRKRLLRDGDKLQKRLAEYQARAKEAFDR [T-052]	1.75	202	–	–	1.18	–
HLRKLRKRLLRDGDKLQDRLAEYQARAREAFDR [T-055]	5.09	–	–	–	–	–
B2	0.72	–	1.14	0.17	–	–
EELRVRLASHLRKLRKRLLR [T-074]	2.43	–	2.37	77	–	–
B3	1.98	0.66	–	–	1.48	–
B4	2.39	0.56	–	–	1.12	–
LARHLRKLRKRLARDADDLQKRLAVYQAGAREGAER [T-047]	3.26	–	–	–	–	–
RSGADALESALKELKRFIREWT [T-101]	–	–	11.7	–	–	–
B5	2.81	–	0.42	0.21	–	–
B6	1.21	–	4.53	0.28	–	–
B7	–	–	–	–	–	Kd (T-050): 528 µM; Kd (T-053): 122 µM; Kd (T-060): 150 µM; Kd (T-119): 2.31 µM; Kd (T-077): 189 µM; Kd (T-071): 348 µM

Binder	Kd [1] [µM]	Kd [2] [µM]	Kd [3] [µM]	Kd [4] [µM]	Kd [5] [µM]	also measured
DAWERFRALFKELADYFR [T-087]	–	–	2.27	–	–	–
HLRRLRRRLLRDGDKLQDRLAEYQARAKEAFDR [T-041]	7.49	–	–	–	701	–
HLRKLRKRLLRDGDKLQDRLAEYQARAKEAFDR [T-040]	5.54	–	–	–	882	–
B8	1.27	–	2.7	0.17	–	–
HLRKLRKRLLRSLVSQYRQTVTDYGKDL [T-110]	1.15	–	2.97	1.2	–	–
LARHLRKLRKRLARDGDKLQDRLAEYQARAKEAFDR [T-049]	3.26	–	–	–	–	–
HLRKLVKRLFRDGDKLQDRLAEYQARAKEAFDR [T-059]	7.27	–	–	–	7.72	–
HLRKLRKRLLRDGDKLYDRLAEYYARAKEAFDR [T-062]	2.23	52.9	–	–	9.36	–
B9	1.82	–	1.44	0.29	–	–
LASHLRKLRKRLLR [T-072]	4.85	–	8.27	–	–	–
LASHLRKLRKRLLRDGDKLQDRLAEYQARAKEAFDR [T-048]	5.24	666	–	–	–	–
LVQYRGEVQAMLGQSTEELRVRLASHLRKLRKRLLRDADDLQKRLAVYQA [T-070]	–	0.68	–	–	1.38	–
LASHLRKLRKRLLRSLVSQYFQTVTDYGKDLM [T-065]	0.75	0.18	–	–	1.07	–
B10	11.8	–	0.8	–	–	–
B11	2.72	–	0.32	94.3	–	–
HLRKLRKRLLRDADDLQKRLAEYQARAKEAFDR [T-064]	6.81	–	–	–	–	–
